# Assay results taken from publication PMC2635643, “Improving the Stability of Insulin in Solutions Containing Intestinal Proteases in Vitro” (International Journal of Molecular Sciences, 2008).
# Columns and labels:
# [1] = UV absorption spectra of insulin in different solutions; assay type: physicochemical; conditions: Table 1, UV absorption at 275 nm; insulin 100 μg/mL, casein 200 μg/mL, HP-β-CD 1 mg/mL (Figure 6A)
# Description: Absorption spectra were recorded on a Shimadzu UV-2450 spectrophotometer. The absorption spectra were carried out according to Kano et al..
# α-chymotrypsin = assay: Degradation of insulin induced by α-chymotrypsin (remaining insulin by HPLC and PAGE); assay type: in vitro ADME
# Description: (§1) HPLC was carried out according to Todo et al. with minor modifications. Analyses of remaining insulin were carried out by reserve phase HPLC with an isocratic system (Shimadzu Co., Kyoto) using the raw insulin bulk drug as the standard (28 IU/mg). The HPLC system was composed of a pump (LC-10ADvp), diode array detector (SPD-M10Avp), column oven (CTO-10ASvp), and LC workstation (CLASS-LC10). The mobile phase was a 72:28 mixture of 0.2 mol/L sodium sulphate buffer (pH 3.0) and acetonitrile at a flow rate of 1.0 mL/min. The column was a Shodex Asahipak ODP-50 6D (4.6mm × 150 mm, 5 um) (Showa Denko, Ltd., Tokyo) heated at room temperature. Ultraviolet absorption was measured at 214 nm.
# (§2) PAGE was carried out according to Laemmli with minor modifications. The running gel, stacking gel and electrode buffer are without sodium dodecyl sulfate (SDS). The running gel and stacking gel contained 15% and 4.5% acrylamide, respectively. After electrophoresis, the gels were subjected to stain with Coomassie Brilliant R-250.
# (§3) Insulin was dissolved in a few drops of 0.05 mol/L HCL, then 0.05 mol/L PBS (phosphate buffer, pH=7.0) was added. α-Chymotrypsin (5 mg/mL) and trypsin (12 mg/mL) solutions were prepared with Tris-HCL buffer (pH=8.0), respectively. Casein (5 g) was dissolved in 0.1 mol/L NaOH (10 mL), then was diluted to 100 mL with PBS (pH=7.0), The pH of final concentration was again measured and adjusted to pH 7.0. 5% Protamine solution was prepared with PBS (pH=7.0). Insulin solution and enzyme solutions were incubated at 37 °C for 15 min. Different treatments were administered. The final concentration of insulin in the solution was 0.5 mg/mL. The final mass ratios in the solution were as following, insulin:HP-β-CD = 1 :30; insulin:casein = 1:10; insulin:protamine = 1:10; insulin:casein or protamine:HP-β-CD = 1:10:30. Before the addition of a-chymotrypsin solution, insulin solution was vortexed at high speed for 5 s and a sample was withdrawn and added with ice-cold 0.5% TFA acid as the zero time sample. Samples were withdrawn for 15, 30, 45 and 60 min after the addition of the enzyme solution at 37 °C. The final enzyme concentrations of α-chymotrypsin and trypsin were 8 mg/L [29] and 600 mg/L [21], respectively. Then the samples were analyzed by PAGE and HPLC after adding 50 μl of ice-cold 0.5% TFA acid to terminate the reaction. Every experiment was carried out three times. The average and the standard deviation of the data were calculated.
# trypsin = assay: Degradation of insulin induced by trypsin (remaining insulin by HPLC and PAGE); assay type: in vitro ADME
# Description: as §1, §2, §3
Substance,ΔA275 [1],"insulin detected (remaining) against α-chymotrypsin, treated with HP-β-CD (α-chymotrypsin; insulin 0.5 mg/mL, insulin:HP-β-CD = 1:30 (mass), α-chymotrypsin 8 mg/L, PBS pH 7.0, 37 °C, sampling 0-60 min, HPLC UV 214 nm, mean of n=3, P>0.05 vs insulin alone)","insulin remained undegraded against α-chymotrypsin, treated with casein (α-chymotrypsin; insulin 0.5 mg/mL, insulin:casein = 1:10 (mass), α-chymotrypsin 8 mg/L, PBS pH 7.0, 37 °C, sampling 0-60 min, HPLC UV 214 nm, mean of n=3, P<0.01 vs insulin alone)","insulin remained undegraded against α-chymotrypsin, co-incubated with HP-β-CD and casein (α-chymotrypsin; insulin 0.5 mg/mL, insulin:casein:HP-β-CD = 1:10:30 (mass), α-chymotrypsin 8 mg/L, PBS pH 7.0, 37 °C, sampling 0-60 min, HPLC UV 214 nm, mean of n=3, P<0.001 vs insulin alone)","remaining insulin against α-chymotrypsin (α-chymotrypsin; insulin alone 0.5 mg/mL, α-chymotrypsin 8 mg/L, PBS pH 7.0, 37 °C, after 60 min, 15 min pre-incubation, HPLC UV 214 nm and PAGE, n=3)","remained insulin against α-chymotrypsin in the solution containing casein and protamine (α-chymotrypsin; insulin with casein and protamine, α-chymotrypsin, 37 °C, data not shown)","degradation of insulin by trypsin, treated with HP-β-CD (trypsin; insulin 0.5 mg/mL, insulin:HP-β-CD = 1:30 (mass), trypsin 600 mg/L, PBS pH 7.0, 37 °C, 0-60 min, n=3, P>0.05 vs insulin alone)","degradation of insulin by trypsin in the presence of protamine (trypsin; insulin 0.5 mg/mL, insulin:protamine = 1:10 (mass), trypsin 600 mg/L, PBS pH 7.0, 37 °C, 0-60 min, n=3, P<0.05 vs insulin alone)","insulin detected (remaining) against trypsin, co-incubated with HP-β-CD and protamine (trypsin; insulin 0.5 mg/mL, insulin:protamine:HP-β-CD = 1:10:30 (mass), trypsin 600 mg/L, PBS pH 7.0, 37 °C, at 60 min, HPLC UV 214 nm, mean of n=3, P<0.01 vs insulin alone)","insulin remained against trypsin (trypsin; insulin alone 0.5 mg/mL, trypsin 600 mg/L, PBS pH 7.0, 37 °C, after 60 min, 15 min pre-incubation, HPLC UV 214 nm, mean of n=3)","remaining insulin against trypsin in the solution containing casein and protamine (trypsin; insulin with casein and protamine, trypsin, 37 °C, data not shown)"
Casein,0.219,,,,,,,,,,
Insulin,0.098,About 25%,about 45%,About 80%,most of insulin was degraded,almost equal to that in the solution containing casein,partly inhibited,significantly decreased,about 70%,about 15%,almost equal to that in the solution containing protamine
